These results are taken from patent US20230055711A1 (BIOSION, published 2023).

The target of the test is recombinant human BCMA-his protein (Acro biosystems, Cat #BCA-H522Y) (human) (UniProt Q02223). Nature of the test: BLI Octet RED96, antibody on AHC sensor, BCMA-his in solution. For orientation: Biolayer interferometry detects binding as a change in optical thickness at a sensor tip.
Chain of recombinant human BCMA-his protein (Acro biosystems, Cat #BCA-H522Y) (human) (Q02223 1-54, stated change not applied): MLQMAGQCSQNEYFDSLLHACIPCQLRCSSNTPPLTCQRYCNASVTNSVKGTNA

B1: huB1H2-V1 (antibody, human IgG1, kappa, V domains shown)
VH: EVQLVQSGAEVKKPGSSVKVSCKASGYTLTNYVMHWMRQAPGQGLEWIGFIIPFNDGTKYNEHFKGRATLTSDKSTNTAYMELSSLRSEDTAVYYCARYDFEGYFDVWGAGTLVTVSS
VL: DIQMTQSPSSLSASVGDRVTITCSASQDITNFLNWYQQKPGKTVKLLIYSTSRLHSGVPSRFSGSGSGTDYTFTISSLQPEDIATYYCQQYSNLPWTFGQGTKVEIKR
A word on the Kd: it is the equilibrium constant for the complex coming apart. A word on the koff: it is the rate constant with which the complex falls apart. Usually kon stands for the rate constant with which the complex forms. As to B1, the Kd was found to be 1.22 nM, the koff is 0.000498 s⁻¹ and the kon was 407000 M⁻¹ s⁻¹.

B2: huB1H2-V6 (antibody, human IgG1, kappa, V domains shown)
VH: QVQLVQSGAEVKKPGASVKVSCKASGYTLTNYVMHWVRQAPGQGLEWIGFIIPFNDGTKYNEHFKGRVTITSDKSISTAYMQLSSLRSEDTAVYYCARYDFEGYFDVWGQGTLVTVSS
VL: DIQMTQSPSSLSASVGDRVTITCSASQDITNFLNWYQQKPGKTVKLLIYSTSRLHSGVPSRFSGSGSGTDYTFTISSLQPEDIATYYCQQYSNLPWTFGQGTKVEIKR
B2: the Kd was 1.12 nM, the koff came to 0.00044 s⁻¹ and the kon was 392000 M⁻¹ s⁻¹.

B3: huB1H2-V2 (antibody, human IgG1, kappa, V domains shown)
VH: QVQLVQSGAEVKKPGASVKVSCKASGYTLTNYVMHWVRQAPGQGLEWIGFIIPFNDGTKYNEHFKGRVTITRDTSISTAYMQLSSLRSEDTAVYYCARYDFEGYFDVWGQGTLVTVSS
VL: DIQMTQSPSSLSASVGDRVTITCSASQDITNFLNWYQQKPGKTVKLLIYSTSRLHSGVPSRFSGSGSGTDYTFTISSLQPEDIATYYCQQYSNLPWTFGQGTKVEIKR
Turning to B3, the Kd amounted to 1.29 nM, the koff was 0.000742 s⁻¹ and the kon was 573000 M⁻¹ s⁻¹.

B4: huB1H2-V22 (antibody, human IgG1, kappa, V domains shown)
VH: QVQLVQSGAEVKKPGASVKVSCKASGYTLTNYVMHWVRQAPGQGLEWIGFIIPFNDGTKYNEHFKGRVTITSDTSISTAYMQLSSLRSEDTAVYYCARYDFEGYFDVWGQGTLVTVSS
VL: DIQMTQSPSSLSASVGDRVTITCSASQDITNFLNWYQQKPGKAPKLLIYSTSRLHSGVPSRFSGSGSGTDYTLTISSLQPEDIATYYCQQYSNLPWTFGQGTKVEIKR
As for B4, the Kd worked out at 3.77 nM, the off-rate (koff) came out at 0.000862 s⁻¹ and the on-rate constant (kon) came out at 229000 M⁻¹ s⁻¹.

B5: huB1H2-V3 (antibody, human IgG1, kappa, V domains shown)
VH: QVQLVQSGAEVKKPGASVKVSCKASGYTLTNYVMHWMRQAPGQGLEWIGFIIPFNDGTKYNEHFKGRVTITRDTSISTAYMQLSSLRSEDTAVYYCARYDFEGYFDVWGQGTLVTVSS
VL: DIQMTQSPSSLSASVGDRVTITCSASQDITNFLNWYQQKPGKTVKLLIYSTSRLHSGVPSRFSGSGSGTDYTFTISSLQPEDIATYYCQQYSNLPWTFGQGTKVEIKR
With B5, the Kd amounted to 0.731 nM, the koff was 0.000402 s⁻¹ and the kon came to 550000 M⁻¹ s⁻¹.

B6: huB1H2-V15 (antibody, human IgG1, kappa, V domains shown)
VH: QVQLVQSGAEVKKPGASVKVSCKASGYTLTNYVMHWMRQAPGQGLEWIGFIIPFNDGTKYNEHFKGRVTITRDTSISTAYMQLSSLRSEDTAVYYCARYDFEGYFDVWGQGTLVTVSS
VL: DIQMTQSPSSLSASVGDRVTITCSASQDITNFLNWYQQKPGKAVKLLIYSTSRLHSGVPSRFSGSGSGTDFTLTISSLQPEDIATYYCQQYSNLPWTFGQGTKVEIKR
In the case of B6, the Kd was 6.06 nM, the koff was found to be 0.00137 s⁻¹ and the kon stood at 226000 M⁻¹ s⁻¹.

B7: huB1H2-V17 (antibody, human IgG1, kappa, V domains shown)
VH: QVQLVQSGAEVKKPGASVKVSCKASGYTLTNYVMHWVRQAPGQGLEWIGFIIPFNDGTKYNEHFKGRVTITRDKSISTAYMQLSSLRSEDTAVYYCARYDFEGYFDVWGQGTLVTVSS
VL: DIQMTQSPSSLSASVGDRVTITCSASQDITNFLNWYQQKPGKAVKLLIYSTSRLHSGVPSRFSGSGSGTDFTLTISSLQPEDIATYYCQQYSNLPWTFGQGTKVEIKR
For the molecule B7, the Kd was determined as 9.16 nM, the koff worked out at 0.00238 s⁻¹ and the kon came out at 260000 M⁻¹ s⁻¹.

B8: huB1H2-V24 (antibody, human IgG1, kappa, V domains shown)
VH: QVQLVQSGAEVKKPGASVKVSCKASGYTLTNYVMHWVRQAPGQGLEWIGFIIPFNDGTKYNEHFKGRVTITSDKSISTAYMQLSSLRSEDTAVYYCARYDFEGYFDVWGQGTLVTVSS
VL: DIQMTQSPSSLSASVGDRVTITCSASQDITNFLNWYQQKPGKAPKLLIYSTSRLHSGVPSRFSGSGSGTDYTLTISSLQPEDIATYYCQQYSNLPWTFGQGTKVEIKR
As for B8, the Kd amounted to 6.1 nM, the koff is 0.001 s⁻¹ and the kon is 164000 M⁻¹ s⁻¹.

B9: huB1H2-V4 (antibody, human IgG1, kappa, V domains shown)
VH: QVQLVQSGAEVKKPGASVKVSCKASGYTLTNYVMHWVRQAPGQGLEWIGFIIPFNDGTKYNEHFKGRVTITSDTSISTAYMQLSSLRSEDTAVYYCARYDFEGYFDVWGQGTLVTVSS
VL: DIQMTQSPSSLSASVGDRVTITCSASQDITNFLNWYQQKPGKTVKLLIYSTSRLHSGVPSRFSGSGSGTDYTFTISSLQPEDIATYYCQQYSNLPWTFGQGTKVEIKR
For the molecule B9, the Kd worked out at 0.269 nM, the koff was found to be 0.00029 s⁻¹ and the kon worked out at 1.08e+06 M⁻¹ s⁻¹.

B10: huB1H2-V18 (antibody, human IgG1, kappa, V domains shown)
VH: QVQLVQSGAEVKKPGASVKVSCKASGYTLTNYVMHWVRQAPGQGLEWIGFIIPFNDGTKYNEHFKGRVTITSDKSISTAYMQLSSLRSEDTAVYYCARYDFEGYFDVWGQGTLVTVSS
VL: DIQMTQSPSSLSASVGDRVTITCSASQDITNFLNWYQQKPGKAVKLLIYSTSRLHSGVPSRFSGSGSGTDFTLTISSLQPEDIATYYCQQYSNLPWTFGQGTKVEIKR
Turning to B10, the Kd worked out at 2.22 nM, the koff was 0.000921 s⁻¹ and the kon stood at 415000 M⁻¹ s⁻¹.

B11: huB1H2-V23 (antibody, human IgG1, kappa, V domains shown)
VH: QVQLVQSGAEVKKPGASVKVSCKASGYTLTNYVMHWVRQAPGQGLEWIGFIIPFNDGTKYNEHFKGRVTITRDKSISTAYMQLSSLRSEDTAVYYCARYDFEGYFDVWGQGTLVTVSS
VL: DIQMTQSPSSLSASVGDRVTITCSASQDITNFLNWYQQKPGKAPKLLIYSTSRLHSGVPSRFSGSGSGTDYTLTISSLQPEDIATYYCQQYSNLPWTFGQGTKVEIKR
As to B11, the Kd is 20.4 nM, the koff stood at 0.00214 s⁻¹ and the kon was 105000 M⁻¹ s⁻¹.

B12: huB1H2-V13 (antibody, human IgG1, kappa, V domains shown)
VH: EVQLVQSGAEVKKPGSSVKVSCKASGYTLTNYVMHWMRQAPGQGLEWIGFIIPFNDGTKYNEHFKGRATLTSDKSTNTAYMELSSLRSEDTAVYYCARYDFEGYFDVWGAGTLVTVSS
VL: DIQMTQSPSSLSASVGDRVTITCSASQDITNFLNWYQQKPGKAVKLLIYSTSRLHSGVPSRFSGSGSGTDFTLTISSLQPEDIATYYCQQYSNLPWTFGQGTKVEIKR
On to B12, for which the Kd was 2.21 nM, the koff turned out to be 0.000688 s⁻¹ and the kon was 312000 M⁻¹ s⁻¹.

B13: huB1H2-V21 (antibody, human IgG1, kappa, V domains shown)
VH: QVQLVQSGAEVKKPGASVKVSCKASGYTLTNYVMHWMRQAPGQGLEWIGFIIPFNDGTKYNEHFKGRVTITRDTSISTAYMQLSSLRSEDTAVYYCARYDFEGYFDVWGQGTLVTVSS
VL: DIQMTQSPSSLSASVGDRVTITCSASQDITNFLNWYQQKPGKAPKLLIYSTSRLHSGVPSRFSGSGSGTDYTLTISSLQPEDIATYYCQQYSNLPWTFGQGTKVEIKR
As to B13, the Kd came out at 7.12 nM, the koff stood at 0.00142 s⁻¹ and the kon was 199000 M⁻¹ s⁻¹.

B14: huB1H2-V16 (antibody, human IgG1, kappa, V domains shown)
VH: QVQLVQSGAEVKKPGASVKVSCKASGYTLTNYVMHWVRQAPGQGLEWIGFIIPFNDGTKYNEHFKGRVTITSDTSISTAYMQLSSLRSEDTAVYYCARYDFEGYFDVWGQGTLVTVSS
VL: DIQMTQSPSSLSASVGDRVTITCSASQDITNFLNWYQQKPGKAVKLLIYSTSRLHSGVPSRFSGSGSGTDFTLTISSLQPEDIATYYCQQYSNLPWTFGQGTKVEIKR
Consider B14, for which the Kd was determined as 3.5 nM, the koff is 0.000887 s⁻¹ and the kon was 254000 M⁻¹ s⁻¹.

B15: huB1H2-V20 (antibody, human IgG1, kappa, V domains shown)
VH: QVQLVQSGAEVKKPGASVKVSCKASGYTLTNYVMHWVRQAPGQGLEWIGFIIPFNDGTKYNEHFKGRVTITRDTSISTAYMQLSSLRSEDTAVYYCARYDFEGYFDVWGQGTLVTVSS
VL: DIQMTQSPSSLSASVGDRVTITCSASQDITNFLNWYQQKPGKAPKLLIYSTSRLHSGVPSRFSGSGSGTDYTLTISSLQPEDIATYYCQQYSNLPWTFGQGTKVEIKR
Take B15: the Kd stood at 6 nM, the koff is 0.00141 s⁻¹ and the kon worked out at 234000 M⁻¹ s⁻¹.

B16: huB1H2-V14 (antibody, human IgG1, kappa, V domains shown)
VH: QVQLVQSGAEVKKPGASVKVSCKASGYTLTNYVMHWVRQAPGQGLEWIGFIIPFNDGTKYNEHFKGRVTITRDTSISTAYMQLSSLRSEDTAVYYCARYDFEGYFDVWGQGTLVTVSS
VL: DIQMTQSPSSLSASVGDRVTITCSASQDITNFLNWYQQKPGKAVKLLIYSTSRLHSGVPSRFSGSGSGTDFTLTISSLQPEDIATYYCQQYSNLPWTFGQGTKVEIKR
With B16, the Kd was 5.14 nM, the koff amounted to 0.00137 s⁻¹ and the kon is 266000 M⁻¹ s⁻¹.

B17: huB1H2-V19 (antibody, human IgG1, kappa, V domains shown)
VH: EVQLVQSGAEVKKPGSSVKVSCKASGYTLTNYVMHWMRQAPGQGLEWIGFIIPFNDGTKYNEHFKGRATLTSDKSTNTAYMELSSLRSEDTAVYYCARYDFEGYFDVWGAGTLVTVSS
VL: DIQMTQSPSSLSASVGDRVTITCSASQDITNFLNWYQQKPGKAPKLLIYSTSRLHSGVPSRFSGSGSGTDYTLTISSLQPEDIATYYCQQYSNLPWTFGQGTKVEIKR
For B17, the Kd turned out to be 2.65 nM, the koff worked out at 0.000647 s⁻¹ and the kon is 244000 M⁻¹ s⁻¹.

B18: huB1H2-V5 (antibody, human IgG1, kappa, V domains shown)
VH: QVQLVQSGAEVKKPGASVKVSCKASGYTLTNYVMHWVRQAPGQGLEWIGFIIPFNDGTKYNEHFKGRVTITRDKSISTAYMQLSSLRSEDTAVYYCARYDFEGYFDVWGQGTLVTVSS
VL: DIQMTQSPSSLSASVGDRVTITCSASQDITNFLNWYQQKPGKTVKLLIYSTSRLHSGVPSRFSGSGSGTDYTFTISSLQPEDIATYYCQQYSNLPWTFGQGTKVEIKR
Turning to B18, the Kd was found to be 0.915 nM, the koff came to 0.000372 s⁻¹ and the on-rate (kon) is 407000 M⁻¹ s⁻¹.
